One test deals with α-actinin (HuActSkl). Put plainly: Yeast two-hybrid, regions of PKN with HuActSkl. In kind it is binding, human. As to the method:
Schemes of the fusion constructs for human PKN, human skeletal muscle type α-actinin (HuActSkl , designated in (Beggs, A., et al., J. Biol. Chem. 267, 9281-9288 (1992)) and non-skeletal muscle type α-actinin (HuActNm, designated in (Beggs, A., et al., J. Biol. Chem. 267, 9281-9288 (1992)) used in this study are shown in FIGS. 41 and 42. Screening of proteins, which bind to the N-terminal region of human PKN (the amino acid sequence 1-540, this region being designated as “PKNNl”), was performed as described in Example 6. Primary positive clones were recovered and retransfected into the original yeast host strain YGH1 (a, ura3-52, his3-200, ade2-101, lys2-801, trpl-901, leu2-3, Can^r, gal4-542, gal80-538, LYS2::gal1uas-gal1tala-HIS3, URA3::gall-lacZ) in combination with the Gal4bd-PKN or the Gal4bd-p53 tumor suppresser. Plasmids that activated marker expression only in the presence of PKN were analyzed further.
The two-hybrid methods was employed to identify the region of PKN that interacted with HuActSkl , and this region was compared with the binding site for RhoA, which binds to PKN, in vitro and in vivo. […] This region corresponds to the second leucine zipperlike sequence and the N-terminal region adjacent thereto, which is conserved through evolution in vertebrates (Mukai, H., et al., Biochim. Biophys. Acta 1261, 296-300 (1995)). […]

For another test, the target named is T1, RhoA (Homo sapiens, UniProt P61586).
T1 construct: expressed in transfected cells; host or cells: yeast (two-hybrid system)
The test is described as follows: Yeast two-hybrid, region of PKN with RhoA. The class given is binding. The settings on record: data not shown. The text has this: The two-hybrid methods was employed to identify the region of PKN that interacted with HuActSkl , and this region was compared with the binding site for RhoA, which binds to PKN, in vitro and in vivo. […] This region corresponds to the second leucine zipperlike sequence and the N-terminal region adjacent thereto, which is conserved through evolution in vertebrates (Mukai, H., et al., Biochim. Biophys. Acta 1261, 296-300 (1995)). Thus α-actinin binds to the region distinct from that which binds to Rho.

The test system of test [1] is GST-NF (each subunit) fusion proteins. The test is described as follows: In vitro binding of in vitro translated PKN to GST-NF (each subunit). The settings on record: GST pull-down. The source says:
For in vitro transcription, truncated human PKN was made as follows; Expression vector pPKNN2 for N-terminal region of PKN (the amino acid sequence 1-474 in SEQ ID NO: 1, this region was designated as “PKNN2”) was made by digesting phPKN-H4 (a plasmid containing human PKN cDNA in pBluescript II SK (Mukai, H. & Ono, Y., Biochem. Biophys. Res. Commun. 199, 897-904 (1994)) with Bst EII, and filling in the ends with T4 DNA polymerase, and self-legation. This removed the original amino acid sequences C-terminal downstream of the BstEII site (1425 nucleotides from initiating ATG codon), and a stop codon was created in the plasmid sequence. Fragment coding for the amino acid sequence 614-942 in SEQ ID NO: 1, (This region was designated as “PKNC2”) containing the conserved catalytic domain of human PKN was made by PCR amplification. Expression vector pPKNC2 was made by subcloning this fragment into pRc/CMV (Invitfrogen Corp.). These plasmids were linealized by cutting with XbaI, and CRNA was transcribed using T7 RNA polymerase. For NFL, pBL (Nakagawa, T. et al., J. Cell. Biol. 129, 411-429 (1995)) was linealized by cutting with HindIII, and CRNA was transcribed using T3 RNA polymerase. For in vitro translation, these cRNAs were translated in rabbit reticulocyte lysate (Promega) in the presence of [^35S] methionine. […]

Test [2] has as its system repeat 20 of rat α-spectrin. Put plainly: In vitro binding of PKN to α-spectrin repeat 20. As to the method:
cDNAs encoding the spectrin-like repeat 3 (the amino acid sequence 479-600) and EF-hand-like region (the amino acid sequence 712-843) of HuActNm were amplified by PCR from human brain cDNA library, and were ligated to pGEX4T vector. cDNAs encoding the spectrin repeat 20 and EF-hand-like region of α-actinin were amplified by PCR from rat brain cDNA library, and were ligated to pGEX4T vector. Expression and purification of GST or GST fusion proteins were performed according to the manufacturer's instruction (Phamacia Biotech Inc.). The eluate from glutathione-Sepharose 4B (Pharmacia Biotech Inc.) was dialyzed overnight against 10 mM Tris/HCl at pH 7.5 containing 1 mM EDTA, 1 mM DTT, and 0.1 μg/ml leupeptin.
Since PKN bound to the repeat 3 of α-actinin, the present inventors have examined whether PKN can bind to the repeat 20 of α-spectrin.

In test [3] the target is T2, spectrin-like repeat 3 domain of HuActNm (Homo sapiens, UniProt P12814).
T2 construct: made in house; host or cells: E. coli
Put plainly: In vitro binding of PKNN2 to HuActNm spectrin-like repeat 3. As to the method:
(§1) For in vitro binding experiment, 2 μl of in vitro translated PKNN2 was mixed with 5 μg of each GST-α-actinin fusion protein or with 25 μg of GST alone in 400 μl of GST binding buffer (20 mM Tris/HCl at pH 7.5, 0.5 mM DTT, 150 mM NaCl, 0.05% Triton-X100, 1 mM EDTA, 1 μg/ml leupeptin) and incubated for 1 hr at 4° C. After addition of 25 μl of glutathione-Sepharose 4B pretreated with 10 mg/ml of E. coli extract to block nonspecific binding, the binding reaction was continued for additional 30 min at 4° C. The glutathione-Sepharose 4B was then washed four times in GST washing buffer (20 mM Tris/HCl at pH 7.5, 0.5 mM DTT, 1 mM EDTA, 1 μg/ml leupeptin) containing 0.5 M NaCl and 0.5% Triton X-100, and further washed with GST washing buffer. Bound proteins were eluted with GST elution buffer (100 mM Tris/HCl at pH 7.5, 10 mM glutathione, 120 mM NaCl, 1 mM EDTA, 0.5 mM DTT, 1 μg/ml leupeptin) and were subjected to SDS-PAGE. The binding was visualized and quantitated by an imaging analyzer (FUJI BAS1000).
(§2) Accordingly, the present inventors have studied whether the in vitro translated PKNN2 could bind to the region of HuActNm corresponding to the PKN-binding site of HuActSkl in the same manner as in Example 25. The HuActNm fragment used in the experiment was prepared according to the following procedure. […]

In test [4] the target is T3, EF-hand-like domain of HuActNm (Homo sapiens, UniProt P12814).
T3 construct: made in house; host or cells: E. coli (GST fusion); rabbit reticulocyte lysate (PKNN2)
Put plainly: In vitro binding of PKNN2 to HuActNm EF-hand-like domain. The protocol:
as §1, §2

The target of test [5] is T4, in vitro translated PKNN2 (Homo sapiens, UniProt Q16512).
T4 construct: made in house; host or cells: in vitro translation in rabbit reticulocyte lysate (Promega)
Put plainly: In vitro binding of GST-HuActSkl fragments to PKNN2. The settings on record: resistant to 0.5% Triton X-100/0.5 M NaCl wash. The protocol:
In vitro transcription for the N-terminal region of PKN (the amino acid sequence 1-474, this region being designated as PKNN2 (Example 8)) was performed as described in Example 8. For in vitro translation, cRNAs were translated in rabbit reticulocyte lysate (Promega) in the presence of [^35S] methionine as described in Example 8.
as §1

For another test, the target named is full-length human PKN (Homo sapiens, UniProt Q16512). The test is described as follows: Co-immunoprecipitation of PKN with HA-tagged α-actinin in COS7 cells. The class given is cell-based.

Ends that are not written are not given here.

T3 sequence (P12814 712-843): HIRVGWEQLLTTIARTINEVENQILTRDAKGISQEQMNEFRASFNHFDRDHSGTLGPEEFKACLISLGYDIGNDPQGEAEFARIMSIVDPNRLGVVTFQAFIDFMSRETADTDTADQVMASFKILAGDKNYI
Chain of full-length human PKN (P35609 333-894): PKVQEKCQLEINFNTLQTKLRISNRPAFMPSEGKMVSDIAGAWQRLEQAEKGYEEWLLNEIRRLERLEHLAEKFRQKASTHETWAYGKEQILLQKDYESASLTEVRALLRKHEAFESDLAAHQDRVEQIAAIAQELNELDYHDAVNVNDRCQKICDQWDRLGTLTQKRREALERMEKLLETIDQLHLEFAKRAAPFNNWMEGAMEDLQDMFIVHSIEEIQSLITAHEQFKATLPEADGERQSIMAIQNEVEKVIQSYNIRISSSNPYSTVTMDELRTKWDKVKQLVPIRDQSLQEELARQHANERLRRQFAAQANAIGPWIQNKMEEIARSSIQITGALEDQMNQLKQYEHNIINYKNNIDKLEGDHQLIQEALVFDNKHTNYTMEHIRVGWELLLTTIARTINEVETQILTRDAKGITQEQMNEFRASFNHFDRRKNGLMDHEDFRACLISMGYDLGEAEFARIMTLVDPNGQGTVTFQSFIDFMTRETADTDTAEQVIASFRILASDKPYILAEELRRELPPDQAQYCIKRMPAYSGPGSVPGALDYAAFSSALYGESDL
Chain of full-length human PKN (Q16512 whole entry): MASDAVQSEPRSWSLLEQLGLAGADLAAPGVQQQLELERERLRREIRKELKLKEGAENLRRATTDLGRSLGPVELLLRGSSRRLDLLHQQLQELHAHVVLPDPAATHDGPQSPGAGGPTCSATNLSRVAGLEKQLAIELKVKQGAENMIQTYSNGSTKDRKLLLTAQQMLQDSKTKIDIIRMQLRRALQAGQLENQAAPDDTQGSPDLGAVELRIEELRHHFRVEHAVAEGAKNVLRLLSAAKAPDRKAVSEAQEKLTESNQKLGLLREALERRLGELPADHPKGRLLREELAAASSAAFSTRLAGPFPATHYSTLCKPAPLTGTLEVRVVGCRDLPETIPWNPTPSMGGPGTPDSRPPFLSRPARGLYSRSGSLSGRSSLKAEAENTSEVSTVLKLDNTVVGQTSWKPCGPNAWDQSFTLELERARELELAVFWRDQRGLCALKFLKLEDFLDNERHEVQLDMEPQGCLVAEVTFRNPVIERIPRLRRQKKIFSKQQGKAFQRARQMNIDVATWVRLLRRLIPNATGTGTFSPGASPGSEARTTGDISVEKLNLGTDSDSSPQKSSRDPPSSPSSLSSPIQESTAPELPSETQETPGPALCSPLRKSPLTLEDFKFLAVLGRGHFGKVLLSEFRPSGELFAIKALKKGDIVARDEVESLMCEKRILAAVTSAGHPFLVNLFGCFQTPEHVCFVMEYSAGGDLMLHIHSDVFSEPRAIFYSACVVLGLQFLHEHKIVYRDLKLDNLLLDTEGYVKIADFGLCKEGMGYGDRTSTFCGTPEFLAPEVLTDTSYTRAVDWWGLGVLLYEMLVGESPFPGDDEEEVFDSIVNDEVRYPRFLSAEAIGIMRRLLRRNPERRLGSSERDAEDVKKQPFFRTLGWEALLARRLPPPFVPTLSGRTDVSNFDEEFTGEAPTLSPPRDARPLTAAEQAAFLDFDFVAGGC
T4 sequence (Q16512 1-474): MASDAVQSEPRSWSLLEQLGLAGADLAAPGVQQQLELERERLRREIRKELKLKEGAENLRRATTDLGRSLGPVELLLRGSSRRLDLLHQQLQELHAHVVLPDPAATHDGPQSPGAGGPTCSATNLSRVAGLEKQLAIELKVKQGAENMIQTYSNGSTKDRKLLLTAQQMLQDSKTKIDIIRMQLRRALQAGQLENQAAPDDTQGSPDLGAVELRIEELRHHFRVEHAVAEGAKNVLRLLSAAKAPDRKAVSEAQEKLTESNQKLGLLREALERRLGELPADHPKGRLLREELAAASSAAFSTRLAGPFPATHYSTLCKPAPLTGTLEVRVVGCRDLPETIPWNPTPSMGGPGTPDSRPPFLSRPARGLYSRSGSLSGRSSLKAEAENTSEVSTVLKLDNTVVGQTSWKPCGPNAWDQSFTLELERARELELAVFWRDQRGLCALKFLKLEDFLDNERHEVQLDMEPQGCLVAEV
T2 sequence (P12814 479-600): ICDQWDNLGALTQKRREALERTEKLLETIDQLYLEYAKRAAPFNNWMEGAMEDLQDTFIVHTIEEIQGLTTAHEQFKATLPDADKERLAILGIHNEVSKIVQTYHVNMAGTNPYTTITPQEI
T1 sequence (P61586 whole entry): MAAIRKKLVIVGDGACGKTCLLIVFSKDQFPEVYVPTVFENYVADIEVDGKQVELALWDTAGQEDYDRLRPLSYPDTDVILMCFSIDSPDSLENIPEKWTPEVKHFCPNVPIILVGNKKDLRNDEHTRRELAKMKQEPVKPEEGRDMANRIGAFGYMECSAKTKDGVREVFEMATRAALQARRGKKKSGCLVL
Chain of α-actinin (HuActSkl) (P35609 344-894 limits assumed): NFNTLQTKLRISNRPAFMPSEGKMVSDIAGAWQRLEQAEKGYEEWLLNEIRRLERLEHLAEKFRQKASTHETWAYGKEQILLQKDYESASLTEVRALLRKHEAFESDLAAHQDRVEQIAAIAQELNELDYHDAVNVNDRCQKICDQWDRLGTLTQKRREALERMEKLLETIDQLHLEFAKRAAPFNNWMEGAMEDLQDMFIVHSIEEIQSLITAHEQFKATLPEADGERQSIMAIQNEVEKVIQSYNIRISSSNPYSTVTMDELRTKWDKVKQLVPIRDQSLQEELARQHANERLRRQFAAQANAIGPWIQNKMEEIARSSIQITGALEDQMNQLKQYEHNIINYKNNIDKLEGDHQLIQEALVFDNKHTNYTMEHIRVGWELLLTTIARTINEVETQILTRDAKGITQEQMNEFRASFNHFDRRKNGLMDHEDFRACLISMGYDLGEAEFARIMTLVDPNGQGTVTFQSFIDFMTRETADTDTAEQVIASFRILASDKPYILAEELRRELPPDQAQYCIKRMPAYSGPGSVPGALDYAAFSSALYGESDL

With “amino acid 136-189 of PKN: region of PKN: second leucine zipper-like sequence and adjacent N-terminal region”, the “interaction with α-actinin in two-hybrid system” value with α-actinin (HuActSkl) is “strongly interacted”. Further, in the test with RhoA, the “interaction with RhoA in two-hybrid system” value is given as “no interaction was detected”. For the substance “PKN: in vitro translated PKN (PKNN2, 1-474) in the binding assays of b333 and b480”, the “binding to each subunit of NF at the head-rod domain in vitro” value in test [1] was “directly bound”. In test [2], the “in vitro binding to repeat 20 of rat α-spectrin” value is recorded as “not detected”. Consider “PKNN2: N-terminal region of PKN, amino acid sequence 1-474 in SEQ ID NO: 1, in vitro translated”, for which the “binding to spectrin-like repeat 3 domain of HuActNm” value in test [3] is listed as “could bind”. For the same substance, in test [4] (absence of Ca^2+), the “binding to EF-hand-like domain of HuActNm” value is given as “not detected”. For the same substance, in test [4] (presence of 1 mM Ca^2+), the “binding to EF-hand-like region of HuActNm” value is “could effectively bind”. On to “HuActSkl (837-894): human skeletal muscle type α-actinin fragment, GST fusion (ILASDKPYILAEELRRELPPDQAQYCIKRMPAYSGPGSVPGALDYAAFSSALYGESDL; also: GST fusion)”, for which the “binding of in vitro translated PKNN2 to the fragment” value in test [5] was “not”. For the substance “HA-tagged α-actinin: influenza HA epitope fused to the amino acid sequence 333-894 of HuActSkl (clone#4)”, the “co-immunoprecipitation of PKN with anti-HA antibody” value with full-length human PKN was “contained substantially immunoreactive PKN”.
